Like-named read-outs stand apart in the source and are kept apart here.
B1: Cyt18: tyrosyl tRNA synthetase from Neurospora mitochondria (protein, UniProt P12063 33-669, looked up)
Tyrosine--tRNA ligase, …: LRREFGPKYTAKINEAEENWQARAEAIKKGKKQNTWDLFEERGYVKDTAGTKEHIAELMRTRRIGAYVGIDPTAPSLHVGHLLPLMPLFWMYLEGYKAFTLIGGSTAKIGDPTGRLKSRDHLSSSDATMNMTKIHYQLKKLWENVDTQMRARGYEADWARKRGIVNNNHWWNKQPMLEVLRRVGHALRIGPMLSRDTVKNKMTQGDGVSFAEFTYPIMQGWDWFELFYQQGVQMQIGGSDQYGNIISGLEVVKAARESEPDPQERKYVTPKTALDECVGFTVPLLTDSSGAKFGKSAGNAIWLDPYQTSVFDFYGYFVRRSDQEVENLLKLFTFMPISEITKTMEEHIKDPSKRVAQHTLAREVVTLVHGKQEASAAEDQHRMMYTGQMTIPQVSRAKDAATGGDQYKTISDQPVTLNNAPRIDMILPESLIMGKSIGRILYAAGLASSTTEGHKLAAAQGCYVGGAHRAGGENVTMNPDLISFMPVKLWFPGETQRYLINGNLLILRKGKHNVRVIQMVSDVEYAASGQTYPGQSFTGAVRKLNEIMKNLKEKKLTPEEAKNAVNELQKSSQEKQQGQQIIFPEEKSRQKKDMETKLKQEMIASVKTIDGMMDEKPSVRGDGVKKQTQDDRDPYKW
B2: lysozyme from human milk: lysozyme from human milk (protein, UniProt P61626 19-148, looked up)
Lysozyme C: KVFERCELARTLKRLGMDGYRGISLANWMCLAKWESGYNTRATNYNAGDRSTDYGIFQINSRYWCNDGKTPGAVNACHLSCSALLQDNIADAVACAKRVVRDPQGIRAWVAWRNRCQNRDVRQYVQGCGV
B3: turkey lysozyme: extremely homologous (98%) turkey lysozyme (protein, UniProt P00703 19-147, looked up)
Lysozyme C: KVYGRCELAAAMKRLGLDNYRGYSLGNWVCAAKFESNFNTHATNRNTDGSTDYGILQINSRWWCNDGRTPGSKNLCNIPCSALLSSDITASVNCAKKIASGGNGMNAWVAWRNRCKGTDVHAWIRGCRL

Experiments:
[1] = system: lysozyme-dependent clones; test: Specificity of activation of lysozyme-dependent ribozymes by proteins; type: biochemical
Procedure: (§1) Protein inactivation. Standard ligation assays were performed as described above, but in the presence of protein samples that had been pre-treated as follows. Cyt18 protein was denatured by heating for 10 min at 70° C. or by the addition of 6% SDS (0.7% SDS in ligation reaction). Lysozyme was heated 10 min at 100° C. or incubated 10 min at room temperature in the presence of 2 mM DTT (0.3 mM DTT final reaction) without inactivating the protein. The protein was successfully inactivated by heating for […] at 70° C. in the presence of 2 mM DTT. Ligation reactions were performed with 1.3 μM protein in 15 μl reactions incubated 5 min at 25° C.

[2] = biological target: group I self-splicing intron; settings: cited from earlier work
[3] = system: Cyt 18-dependent population; test: Specificity of activation of Cyt18-dependent ribozymes by proteins; type: biochemical; settings: Cyt18 denatured by heating or SDS
Procedure: as §1

| Molecule | activation of lysozyme-dependent ribozyme by other proteins [1] | Kd for group I self-splicing intron [2] | activation of ribozyme catalysis by denatured Cyt18 [3] | activation of lysozyme-dependent ribozyme by other proteins ([1]; listed as turkey egg white lysozyme) |
| --- | --- | --- | --- | --- |
| B1 | inactive | femptomolar range | unable to activate | – |
| B2 | inactive | – | – | – |
| B3 | cross-activation | – | – | activated |
